From the DeepSol protein solubility set

Assay: soluble on expression in E. coli; label from the status in PepcDB or PDB records

**Q.** For “MSLRPGQVDNDVINLVAMLFEFILDDRHLHSVMKSLLGRLQIPILKVALTDKNFFNRGGHPARKLLNEMALAATGWTEKRPGQRDPLLDKISAVVNRILAEFSTDVSLFNELLDDFNQFSDLDQRRSDLVEQRLRDAEEGRARHEQATADTKELLHEAMDGRLLPEPVQDMLNGPWSHYLHWLALHESTDSEAWQRAKTLTEQLIWTIDPVPLTATTHELLQQAIPQVIEQLRGALEGVAWDGLSVEMVVRDLELVHLDVFQRLVIAPSEAAGNDHAQIDDSQEAPAVRADAVPSDTTNTSADVSHPAPALPVAADDPKEAVVARVPEPTRAQPVVAEEWLAKADGLRVGCWLELNRDGSQIRCKLAAFIRAVDKYIFVNRSGAKVAEYRRNELAEMMAQGHIEILDDGLIFDRALESIIDNLRTSRREGHHHHHH”, which “soluble on expression in E. coli” value is on record?
**A.** The value was “soluble”.

**Q.** With “MVGINNWSSNLDAYRILQEAQSLTEEPPHFDTAFPIEPESIAPPEHHNHRYVIGQEEHRVRRLAANRNKGRPSARAFGNARNNSTRN” as the sequence, how does the “soluble on expression in E. coli” value read?
**A.** Its value is “not soluble”.

**Q.** With “MAHHHHHHMENVAKLQRQNASLKDRVSALEEQLAGATSSLARTGDCEQQISLLIERLGKEKERHKAVAEERNQLKDHLQDLEEEVEEYRTREEGWISGQERQQENEIAAQQRIAQLENDMRSCNAIVDNLTTQLTEAKHLNGVLQNQVKELKVSYSAQLDTVKESSSETVDQLRQEVEQLRSSLQNLSTEYDTRTAELEREVQNANMHAHQAEARLSEMALGSVNTLQDLRSELEDSQRSSATWKAEAQKARHEYTTLLEQYASLKRSRAAAEADLRDRLSYESNTVSALRKGIREWEDRYLALQESVGATQTEIEEQRKTIMQLEATIQKLKASGSDMLSPSQSEVVVSTNAPPVKASFSEPSLSGLPLDEILGRRLMPAPPLNPFMSMERPAWSDSRDRKTRERLEQEVVRQSAELERVRAAVADAEVWKAKYDRLQEEHDLLLQLYGQLEEDVSALRKNGAGILSADAAATSSTSGSVSAAAVP” as the sequence, how does the “soluble on expression in E. coli” value read?
**A.** The value was “soluble”.

**Q.** With “MFPSFITHIQSPNSHHHYSSPSFPFSSDFLESFDESFLINQFLLQQQDVAANVVESPWKFCKKLELKKKNEKCVDGSTSQEVQWRRTVKKRDRHSKICTAQGPRDRRMRLSLQIARKFFDLQDMLGFDKASKTIEWLFSKSKTSIKQLKERVAASEGGGKDEHLQVDEKEKDETLKLRVSKRRTKTMESSFKTKESRERARKRARERTMAKMKMRLFETSETISDPHQETREIKITNGVQLLEKENKEQEWSNTNDVHMVEYQMDSVSIIEKFLGLTSDSSSSSIFGDSEECYTSLSSVRGTISAAGNSNVLTKNPN” as the sequence, how does the “soluble on expression in E. coli” value read?
**A.** The value was “not soluble”.

**Q.** For “MGSDKIHHHHHHMPINSYENYVLSWRPVKERLTRPYYQSLVQQLEADILSGALQKNVKLPSQRELADYLDLNFTTIGQAYKHAMEKGLLYTNIGCGTFVSPNAFHSITISTNQVADHLIDLGLVSSFDMCNQRILPFIESVSKNAALNSLLNYRDPLGTHFQRATAAEWLQTQGVRTNAEEVAIVSGVQNGLAVTLAAAFSPGQRIAVDRYTYSNFIELAQLYHLEIVPIGYDSEGMDPEHLLQECKKKKIHGIFLMPACNNPIGFQMSSARRMTLAEIIQQEHLWVIEDDIHSFLTTYAQQAVLPTFQELLPQQTIYLAGMTKFVCTGLRIAYLVFPPLLRQEIERAIFNINVKTSGFDAEIVTQVLRSPVAKELVIEKLALTKQANDLFDTIFGLARPSNPLPYYRTIPLSTEKTAPQIEQEFLQNGVRLFHSSRFTVQNQPDAFLRISLASNQLEVLAKGLTIIQELLPTLNEKKGHSL”, which “soluble on expression in E. coli” value is on record?
**A.** The value was “not soluble”.

**Q.** For “MSLDIHCHILPEIDDGPSSLEESLVMAREAVKEGITKIIATPHHLHPSYNNKAAVVKEKVRKLNEAIQKENIPLEILPGQEVRISGDVMDGLVSGDILTLADQGKYLFVEFSSNHVSRYADKLFFQLLSQDIIPIIVHPERNHEFLKNPGLLYDLVNGGALTQITTSSLTGHLGKKIKKFTEQIIEADLTHFLASDAHNVTERTFRIREAFALVEKNYGSSKAYEFQENAELLVENQHVMGPPPQPIVKKKLLGIFEGHHHHHH”, which “soluble on expression in E. coli” value is on record?
**A.** The value was “soluble”.

**Q.** For “MKVNPDFFPLTQMAQRFVDQLAQCRRLGLTVLEASEHHVLIELPYSTELIGYPDTGVIHGGVITTLMDTACGSAVVSAIFQKYQSLEISPTLDLRVDYMKPAQPHKSVYGFAECYKLSSNIAFTRAIAYQDSIDDPIAHAVGSFMRISPEMVGDAFRQALIGLEHHHHHH”, which “soluble on expression in E. coli” value is on record?
**A.** Its value is “soluble”.

**Q.** Which “soluble on expression in E. coli” value does the source give for “MSIAVTTTDPTNTGVSTTSSSSLTGSNAADLQSSFLTLLVAQLKNQDPTNPMENNELTSQLAQISTVSGIEKLNTTLGSISGQIDNSQSLQASNLIGHGVMIPGTTVLAGTGSEEGAVTTTTPFGVELQQAADKVTATITDKNGAVVRTIDIGELTAGVHSFTWDGTLTDGSTATNGSYNVAISASNGGTQLVAQPLQFALVQGVIRGNNGNTLDLGTYGTTILDEVRQII” here?
**A.** Its value is “soluble”.

**Q.** Which “soluble on expression in E. coli” value does the source give for “GPGSMQQSLIPGHNNNRHLTVEEIENNIGGLAITDNKLQELFDSLDVERTGYLPIGEVKKFYKGLEHYGLEPTDAEIESEMKKFAKSDENFMSYDEFCCLMLSFAQR” here?
**A.** Its value is “not soluble”.

**Q.** Which “soluble on expression in E. coli” value does the source give for “MAHHHHHHMKDIINSDFEDNKDERVIIVDENNEFQELKARKIMRMENLWHRSTSIFVFTKIGEEYFIYVHKRSKVKDYCPSYYSIGFGGVVSENEDMLGNAVKELEEESGIKKSPEQLFDLGVVKCDTECSRSFVGSYVSLTLGKPMPFDGVRPLRIFACSSGNFTLLLIPHAAFFRAVTPSPTGCLHRPRLPDHPPAE” here?
**A.** The value was “soluble”.

**Q.** For “MGSDKIHHHHHHMNDYYDLLDRVKILIKLGRYKEALRIIDEVIEDSPDVSFLYYKISILFTCRRFEEAKSTLNTAISIFPGSTVFRIWKMVLALETKDVLSMAQINFNDNSVASSQLNAPFQSMDFNDNYAYTFSKSVRDLIMKLGKSAIYCDLQQLKEKILTERISTETINGLYTDIMDYRNRDIVELSSYGRAFYFYSIGRIGDSFIEISSLPDHEVFKAFILGKYSDFLKQTYEIADPYTRAVRFHILRLRELSLKEIETASYIGMDELVMSKRIIEFNGSSLSTQVVVNKVPESHL”, which “soluble on expression in E. coli” value is on record?
**A.** Its value is “not soluble”.

**Q.** With “MGSDKIHHHHHHMKESLRILHINDLHSHFEAYPKIKRFFAEHSKTQREVLRFDIGDNVDKSHPLTDVSAGRVNVDLMNDLGIDFATIGNNEGIGLAKAEINQLYHKADFQVILGNLRDKKGRPTWAQPYVIYETKAGTKLALLAYTFPYYWTYVPNGWQVLDAISSLKKDLENPEVAAADFRILLSHLGIRLDEKIARQVPEIDLIIGAHTHHVFEEGEVVNGTYLAAAGRYGDHVGQIDLDFEDHSLTNIAIEAVPTSDLDSEKEDAAFVAHLFEEGEKLLAENLICKLSRQPSLKECADLVMEAMKKSAAADLAIINTGLVVEPFSQNLTKADLHKSLPHQMRLVKFQVTQTELLEICHDIFSQADLLANQQIRGMGFRGKQFGKVVTSGFTYKNGKIVYNNKAIGRKDKMSLVLVDQYYFAPYFNSLTSRKGQLLFPDLLRQTVEKYLRGDL” as the sequence, how does the “soluble on expression in E. coli” value read?
**A.** The value was “not soluble”.

**Q.** For “MSTAINSVEMSLSADEIRERVRAAGVVGAGGAGFPAHVKLQAQVEIFLVNAAECEPMLKVDQQLMWQQAARLVRGVQYAMTATGAREGVIALKEKYRRAIDALTPLLPDGIRLHILPDVYPAGDEVLTIWMATGRRVAPAALPASVGVVVNNVQTVLNIARAVEQRFPVTRRTLTVNGAVARPLTVTVPIGMSLREVLALAGGATVDDPGFINGGPMMGGLITSLDNPVTKTTGGLLVLPKSHPLIQRRMQDERTVLSVARTVCEQCRLCTDLCPRHLIGHELSPHLLVRAVNFHQAATPQLLLSALTCSECNVCESVACPVGISPMRINRMLKRELRAQNQRYEGPLNPADEMAKYRLVPVKRLIAKLGLSPWYQEAPLVEEEPSVEKVTLQLRQHIGASAVANVAVGERVTRGQCVADVPPGALGAPIHASIDGVVSAISEQAITVVRGLEHHHHHH”, which “soluble on expression in E. coli” value is on record?
**A.** Its value is “soluble”.

**Q.** Which “soluble on expression in E. coli” value does the source give for “MGSDKIHHHHHHMHFVITGSLGHIGKPLAIQLSKEGHAVTVVSSNTERIKEIESIGAKAAIGSVEDPGFLTETFRGADAVFTMVPPNMNAADWKAWIAGIGKNYVAAIKESGVKHVVNLSSIGAHMVDKCGPVSGLSQVELAMDEMKGVNVHHLRAGYFYTNFLNSIGQIKNQGIITGNYMPDLKMVLVHPADIADIAARALKDESYLGRGFSYIASDEKTPAEIVTILGKATGRMDLKWVERTDKEEYDDLIAIGLPEEIAKNYTEMGAALRSGDMNADYFRNRPVMAGWRTFDSFMPEFIATYNA” here?
**A.** Its value is “not soluble”.
